Test results reported in publication PMC13722417 (2026).
Where “and” joins values, the source holds several entries; their conditions need not be identical. Identical values can stand only once.

B1: TIE1 21-760 (protein)
chain: AAVDLTLLANLRLTDPQRFFLTCVSGEAGAGRGSDAWGPPLLLEKDDRIVRTPPGPPLRLARNGSHQVTLRGFSKPSDLVGVFSCVGGAGARRTRVIYVHNSPGAHLLPDKVTHTVNKGDTAVLSARVHKEKQTDVIWKSNGSYFYTLDWHEAQDGRFLLQLPNVQPPSSGIYSATYLEASPLGSAFFRLIVRGCGAGRWGPGCTKECPGCLHGGVCHDHDGECVCPPGFTGTRCEQACREGRFGQSCQEQCPGISGCRGLTFCLPDPYGCSCGSGWRGSQCQEACAPGHFGADCRLQCQCQNGGTCDRFSGCVCPSGWHGVHCEKSDRIPQILNMASELEFNLETMPRINCAAAGNPFPVRGSIELRKPDGTVLLSTKAIVEPEKTTAEFEVPRLVLADSGFWECRVSTSGGQDSRRFKVNVKVPPVPLAAPRLLTKQSRQLVVSPLVSFSGDGPISTVRLHYRPQDSTMDWSTIVVDPSENVTLMNLRPKTGYSVRVQLSRPGEGGEGAWGPPTLMTTDCPEPLLQPWLEGWHVEGTDRLRVSWSLPLVPGPLVGDGFLLRLWDGTRGQERRENVSSPQARTALLTGLTPGTHYQLDVQLYHCTLLGPASPPAHVLLPPSGPPAPRHLHAQALSDSEIQLTWKHPEALPGPISKYVVEVQVAGGAGDPLWIDVDRPEETSTIIRGLNASTRYLFRMRASIQGLGDWSNTVEESTLGNGLQAEGPVQESRAAEEGLDQQ
B2: SVEP1 2261-2890 (protein)
chain: PLDCGKPPPIQNGFMKGENFEVGSKVQFFCNEGYELVGDSSWTCQKSGKWNKKSNPKCMPAKCPEPPLLENQLVLKELTTEVGVVTFSCKEGHVLQGPSVLKCLPSQQWNDSFPVCKIVLCTPPPLISFGVPIPSSALHFGSTVKYSCVGGFFLRGNSTTLCQPDGTWSSPLPECVPVECPQPEEIPNGIIDVQGLAYLSTALYTCKPGFELVGNTTTLCGENGHWLGGKPTCKAIECLKPKEILNGKFSYTDLHYGQTVTYSCNRGFRLEGPSALTCLETGDWDVDAPSCNAIHCDSPQPIENGFVEGADYSYGAIIIYSCFPGFQVAGHAMQTCEESGWSSSIPTCMPIDCGLPPHIDFGDCTKLKDDQGYFEQEDDMMEVPYVTPHPPYHLGAVAKTWENTKESPATHSSNFLYGTMVSYTCNPGYELLGNPVLICQEDGTWNGSAPSCISIECDLPTAPENGFLRFTETSMGSAVQYSCKPGHILAGSDLRLCLENRKWSGASPRCEAISCKKPNPVMNGSIKGSNYTYLSTLYYECDPGYVLNGTERRTCQDDKNWDEDEPICIPVDCSSPPVSANGQVRGDEYTFQKEIEYTCNEGFLLEGARSRVCLANGSWSGATPDCVPVR

Columns and labels:
SVEP1 919-3571 [1] = target: SVEP1 919-3571 (Homo sapiens, UniProt Q4LDE5, ANG2 present); experiment: ELISA
SVEP1 919-3571 [2] = target: SVEP1 919-3571 (Homo sapiens, UniProt Q4LDE5, ANG1 present); experiment: ELISA
SVEP1 919-3571 [3] = target: SVEP1 919-3571 (Homo sapiens, UniProt Q4LDE5); experiment: ELISA
TIE1 21-760 = target: B1; experiment: SPR

| Binder | Kd (SVEP1 919-3571 [1]) [µM] | Kd (SVEP1 919-3571 [2]) [µM] | Kd (SVEP1 919-3571 [3]) | Kd (TIE1 21-760) [µM] |
| --- | --- | --- | --- | --- |
| B1 | 0.0556 | 0.0824 | 0.189 µM and 0.147 µM |  |
| B2 |  |  |  | 0.0625 |
